By stoichiometry N is commonly meant the number of molecules, sites or subunits per partner or assembly.

The series deals with the molecule itself. In words: single-molecule stepwise photobleaching.

B1: prestin-eGFP (natural protein, UniProt Q9JKQ2 1-744, looked up)
chain: MDHAEENEIPVATQKYHVERPIFSHPVLQERLHVKDKVSESIGDKLKQAFTCTPKKIRNIIYMFLPITKWLPAYKFKEYVLGDLVSGISTGVLQLPQGLAFAMLAAVPPVFGLYSSFYPVIMYCFFGTSRHISIGPFAVISLMIGGVAVRLVPDDIVIPGGVNATNGTEARDALRVKVAMSVTLLSGIIQFCLGVCRFGFVAIYLTEPLVRGFTTAAAVHVFTSMLKYLFGVKTKRYSGIFSVVYSTVAVLQNVKNLNVCSLGVGLMVFGLLLGGKEFNERFKEKLPAPIPLEFFAVVMGTGISAGFNLHESYSVDVVGTLPLGLLPPANPDTSLFHLVYVDAIAIAIVGFSVTISMAKTLANKHGYQVDGNQELIALGICNSIGSLFQTFSISCSLSRSLVQEGTGGKTQLAGCLASLMILLVILATGFLFESLPQAVLSAIVIVNLKGMFMQFSDLPFFWRTSKIELTIWLTTFVSSLFLGLDYGLITAVIIALLTVIYRTQSPSYKVLGQLPDTDVYIDIDAYEEVKEIPGIKIFQINAPIYYANSDLYSNALKRKTGVNPALIMGARRKAMRKYAKEVGNANIANAAVVKVDGEVDGENATKPEEEDDEVKYPPIVIKTTFPEELQRFMPQTENVHTIILDFTQVNFIDSVGVKTLAVMVKEYGDVGIYVYLAGCSPQVVNDLTRNRFFENPALKELLFHSIHDAVLGSHVREAMAEQEASAPPPQDDMEPNATPTTPEA
For B1, the “stoichiometry N” value was 4.

The record behind these values is PMC3786598 (Microscopy and microanalysis : the official journal of …, 2012).
